{"source": "the nanobody polyreactivity screen of Harvey et al. (2022)", "data": [{"assay": "yeast display, Sf9 membrane polyspecificity reagent, FACS + sequencing; frameworks hold sequencing errors", "in_short": "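A nanobody's polyreactivity label depends on the gate it was sorted from. Yeast display cells were stained with 10% biotinylated, detergent-solubilized Sf9 membrane reagent for 1 hour at 4 °C, enriched on streptavidin microbeads and sorted by FACS. The low and high (top ~1%) gates were set on anti-HA fluorescence for expression and streptavidin fluorescence for reagent binding.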", "values": [{"sequence": "QVQIVESGGGLVQAGGSLRLSCAASGSIFRGYAKGWYRQAPGKERELVAAITQRAGSTYYADSVKGRFTISRDNAKNTVYLQMNSLKPEDTAVYYCAADVFYVFLHRVWYNYWGQGTQVTVSS", "polyreactivity (PSR sort gate)": "low polyreactivity"}, {"sequence": "QVQIVESGGGLVQAGGSLRLSCAASGSIFRSYAMGWYRQAPGKERELVAAITSSSGSTYYADSVKGRFTISRDNAKNTVYLQMNSLKPEDTAVYSCAAGSPRRYRYDYWGQGTQVTVSS", "polyreactivity (PSR sort gate)": "high polyreactivity"}, {"sequence": "QVQIVESGGGLVQAGGSLRLSCAASGSIFRYNAMGWYRQARGKERELVAAITSGDSTYYADSVKGRFTISRDNAKNTVYLQMNSLKPEDTAVYYCAVTTWANTQWEEYWGHGTQVTVSS", "polyreactivity (PSR sort gate)": "low polyreactivity"}, {"sequence": "QVQIVESGGGLVQAGGSLRLSCAASGSISVANAMGWYRQAPGKERELVAAITDSGDDTYYADSVKGRFTISRDNAKNTVYFQMNSLKPEDTELYYCAVEAWSVPPYDYWGQGTQVTVSS", "polyreactivity (PSR sort gate)": "low polyreactivity"}, {"sequence": "QVQIVESGGGLVQAGGSLRLSCAASGSSFTLYALGWYRQAPGKERELVAAISWSTTSTYYADSVKGRFTISRDNAKNTVYLQMNSLKPEDTAVYYCNARHWPLAYEYWGQGTQVTVSS", "polyreactivity (PSR sort gate)": "high polyreactivity"}, {"sequence": "QVQIVESGGGLVQAGGSLRLSCAASGSTFAYYTMGWYRQAPGKDRELVAAISASGGSTYYADSVKGRFTISRDNGKNTVYLQMNCLKPEVSEVYYCNAESYLTGWWVDYWGQGSQVTVSS", "polyreactivity (PSR sort gate)": "low polyreactivity"}, {"sequence": "QVQIVESGGGLVQAGGSLRLSCAASGSTFGGYVMGWYRQAPGKERELVAAIRWRTDSTYYADSVKGRFTISRDNAKNTVYLQMNSLKPEDTAVYYCAAPRGTRVGSHLYYWGQGTQVTVSS", "polyreactivity (PSR sort gate)": "high polyreactivity"}, {"sequence": "QVQIVESGGGLVQAGGSLRLSCAASGSTFPTYAMGRYRQAPGKERELVAAITSGSGTNTYYADSVKGRFTISRDNAKNTVYLQMNSLKPEDTAVYYCAKSFRKKYGWGQGTQVTVSS", "polyreactivity (PSR sort gate)": "high polyreactivity"}, {"sequence": "QVQIVESGGGLVQAGGSLRLSCAASGSTFPYNAMVWYRKEPGKERELVAVITTVGSTYYADSVKGRFTISRDNAKNTVYLQMNSLKPEDTAVYYCAAANTQSPGYDYWGQGTQVTVSS", "polyreactivity (PSR sort gate)": "low polyreactivity"}, {"sequence": "QVQIVESGGGLVQAGGSLRLSCAASGSTFTRYAMGWYRQAPGKERELVAAISRTGGSRTYYADSVNGRFTISRDNAKNTVYLQMNCLKPEDTAVYYCAKGYWRYLGFLYFFPARDYWGQGTQVTVSS", "polyreactivity (PSR sort gate)": "high polyreactivity"}, {"sequence": "QVQIVESGGGLVQAGGSLRLSCAASGSTFYGYAMGWYRQAPGKERELVAVINYRGDRTYFADSVKGRFTISRDNAKNTVYLQMNSLKPEDTAVYYCAARYRVYYLAGYEYWGQGTQVTVSS", "polyreactivity (PSR sort gate)": "high polyreactivity"}, {"sequence": "QVQIVESGGGLVQAGGSLRLSCAASGSTINYNAMGWYRQAPGKERELVAAISTNGGSTYYADSVKGRFTISRDNAKNTVYLQMNSLKPEDTAVYYCNKVRKYSRHYDYWGQGTQVTVSS", "polyreactivity (PSR sort gate)": "high polyreactivity"}, {"sequence": "QVQIVESGGGLVQAGGSLRLSCAASGYPFCRNAMGCYRQAPGKERELVAAISRSAGSTNYADSVKGRFTISRDNAMYTVYFQMNSLKPEDTAVYYGAADRYYRDPYWGNYWGQGTQVTVSS", "polyreactivity (PSR sort gate)": "high polyreactivity"}, {"sequence": "QVQIVESGGGLVQAGGSLRLSCAASVIIFSKYGMGWYRQAPGKERELVAAISSSGGTTYYADSVKGRFTISRDNAKNTVYLQMNSLKPEDTAVYYCAATGRRRTYSEYEYWGQGTQVTVSS", "polyreactivity (PSR sort gate)": "high polyreactivity"}, {"sequence": "QVQIVESGGGLVQAGGSLRLSCAAYGRIFVPYAMGWYRPAPGKERELVAAITWRGGSTYYAYSVKGRFTISRDNAKNTVYLQMNSMNPDDTGVYYCNSDEASAGFWFSHLQLGMDYWGQGTQVTVSS", "polyreactivity (PSR sort gate)": "low polyreactivity"}, {"sequence": "QVQIVESGGGLVQAGGSLRLSCAPSGSNIDYNDMGRYRQAPGKEWELVAAISGRGTRTYYADSVKGRFTISRDNAKNTVYLQMNSLKPEDTAVYYCAASTRGRYWGRFGYWGQRTQVTVSS", "polyreactivity (PSR sort gate)": "high polyreactivity"}, {"sequence": "QVQIVESGGGLVQAGGSLRLSCASSGSTFTHYAMGWYRQAPGKERELVAGISWGGSSTYYADSVKGRFTISRDNAKNTVYLQMNSLKPEDTAVYYCAAGRRGSYPGGYGYWGQGTQVTVSS", "polyreactivity (PSR sort gate)": "low polyreactivity"}, {"sequence": "QVQIVESGGGLVQAGGSLRLSCASSGSTFVPNDMGSYRQAPWKERELVAAISRSGDDTYYADSVKGRFTISRDNAKNTVYFQMNSLIPEDTAVYYCNAAGRPFFLRPLRWELDYWGQGTQVTVSS", "polyreactivity (PSR sort gate)": "low polyreactivity"}, {"sequence": "QVQIVESGGGLVQAGGSLRLSCGASGSTLGWYGMGWYRQAPGKERELVATISESGGSTYYADSVKGRFTISRDNAKNTVYLQMNSLKPEDTAVYYCAADDRGLISRRGYFYLSYDYWGQGTQVTVSS", "polyreactivity (PSR sort gate)": "low polyreactivity"}, {"sequence": "QVQIVESGGGLVQAGGSLRLSCSASGNIFYKYAMGWFRQAPGKERELVAAITWRVVRTYYADSVKGRFTISRDNAKNTVYLQMNSLKPEDTAVYYCAALSRQSGDYWGQGTQLTVSS", "polyreactivity (PSR sort gate)": "high polyreactivity"}, {"sequence": "QVQIVESGGGLVQAGGSLRLSCTASGRIFYRYAMGWYRQAPGKERELVAAIRYSGGRTYYADSVKGRFTISRDNAKNTVYLQMNSLKQEDTAVYYCAADGQWYYAPFRGGVYENDYWGQGTQVTVSS", "polyreactivity (PSR sort gate)": "low polyreactivity"}, {"sequence": "QVQIVESGGGLVQAGGSLRLSSAAYGSTFAIYTMGWSRQAPGKERELVATISYSGGGTYYADSVKGRFTISRDNAKNTVYLQMNSLKPEDTAVYYCAAGRRTYYGTYYYWGQGTQVNVSS", "polyreactivity (PSR sort gate)": "high polyreactivity"}, {"sequence": "QVQIVESGGGLVQAGGSLRLTCAASGFTLPIYAMGWYRQAPGKEREFVAAITASGDNTYYADSVKGRFTISRDNAKNTVYLQMNSLKPEDTAVYYCAAAHWWIVGYDYWGQGTQVTVSS", "polyreactivity (PSR sort gate)": "low polyreactivity"}, {"sequence": "QVQIVESGGGLVQAGGSLRLTCAASGSIFGDYAMGWYRQASGKERELVASISESGGSTYYADSVKGRFTISRDNAKNTVYLQMISLKPEDTAVYYCNTDYDYGWWDLGEYEYWGHGTQVTVSS", "polyreactivity (PSR sort gate)": "low polyreactivity"}, {"sequence": "QVQIVESGGGLVQAGGSLRLTCAASGSTFYDYAMGWYRQAPGKERDLVAAITSADSTNYADSVKGRFTISRDNAKNTVYLQMNSLKPEDTAVYYCGQGTQVTVSS", "polyreactivity (PSR sort gate)": "low polyreactivity"}, {"sequence": "QVQIVESGGGLVQAGGSLRLTCAASGYIFKYYAMGWYRQAPGKERELVAAITIGGNTNYADSVKGRFTISRDNAKNTVYLQMNSLKPEDTAVYYCATGGYYSAIVYGGYDYWGQGTQVTVSS", "polyreactivity (PSR sort gate)": "low polyreactivity"}, {"sequence": "QVQIVESGGGLVQAGGSLRVSCAASGSIYTYNGMGWYRQAPWKERELDAAISASGGRTYYADSVKGRYTISRDNAKNTVYLQMNRLKPEDNAVYYCAARILVSGLSRFDYWGQGTQVTVSA", "polyreactivity (PSR sort gate)": "high polyreactivity"}, {"sequence": "QVQIVESGGGLVQAGGSLSLICAASGYIFGNYAMGWYRQAPGKESELVADITWRGDSTYADSVKGRFTISRDNSKNTVYLQMNSLKPEDTAVYYCAADIATEYWYTGYDHWGQGTQVTVSS", "polyreactivity (PSR sort gate)": "low polyreactivity"}, {"sequence": "QVQIVESGGGLVQAGRSLRLSCAASGLIFRAYAMGWYRQAPGKDRELVAAITRSGGRTYYADSVKGRFTISRDNAKNTVYLQMNTLKPVDTAVYYSAAEYGNTYSSYTYDYWGQGTQVNVSS", "polyreactivity (PSR sort gate)": "high polyreactivity"}, {"sequence": "QVQIVESGGGLVQAGVSLRLSCAASGSIYYEYTMGWYRQAPGKERELVAVITSCGTTNYADSVKGRFTISRDNAKNTVFLQMNSLKPEDTAVYYCAAKRRTGGNGYWGQGTQVTVSS", "polyreactivity (PSR sort gate)": "high polyreactivity"}, {"sequence": "QVQIVESGGGLVQARGSLRLSCAASGFIFGSYASGWYRQAPGKERELVAAISWNGDSTYYADSVKGRFTISRDNAKITVYLQMNSLKPEDTAVYYCNAVDVFLYQTDGLGDYWGQGTQVTVSS", "polyreactivity (PSR sort gate)": "low polyreactivity"}, {"sequence": "QVQIVESGGVLVQAGGSLRLSCAASGLTFVQYDMGWYRHAPGKERELVADISGSAGDTYYADSVKGRFTISRDNAKKTVYLQMNSLKPEDTAVYYCNAYGAEYLQYGWRDYWGQGTQLTVSS", "polyreactivity (PSR sort gate)": "low polyreactivity"}]}]}
